Assay results as given in article doi:10.1101/681007 (bioRxiv, 2019).

Experiments:
[1] = target: Human TAp63α (aa10-616, TEV site inserted at aa570 and V599M) (human); assay: SEC
native gel or EMSA = target: the molecule itself; assay: native gel or EMSA

Molecule	stoichiometry N [1]	stoichiometry N (native gel or EMSA)
Human TAp63α (aa10-616, TEV site inserted at aa570 and V599M) (natural protein)	2	
TAp63α, endogenous in mouse ovaries, untreated (closed dimeric form) (natural protein, mouse (endogenous in ovaries), UniProt O88898-1 40-680, looked up) MSQSTQTSEFLSPEVFQHIWDFLEQPICSVQPIELNFVDEPSENGATNKIEISMDCIRMQDSDLSDPMWPQYTNLGLLNSMDQQIQNGSSSTSPYNTDHAQNSVTAPSPYAQPSSTFDALSPSPAIPSNTDYPGPHSFDVSFQQSSTAKSATWTYSTELKKLYCQIAKTCPIQIKVMTPPPQGAVIRAMPVYKKAEHVTEVVKRCPNHELSREFNEGQIAPPSHLIRVEGNSHAQYVEDPITGRQSVLVPYEPPQVGTEFTTVLYNFMCNSSCVGGMNRRPILIIVTLETRDGQVLGRRCFEARICACPGRDRKADEDSIRKQQVSDSAKNGDGTKRPFRQNTHGIQMTSIKKRRSPDDELLYLPVRGRETYEMLLKIKESLELMQYLPQHTIETYRQQQQQQHQHLLQKQTSMQSQSSYGNSSPPLNKMNSMNKLPSVSQLINPQQRNALTPTTMPEGMGANIPMMGTHMPMAGDMNGLSPTQALPPPLSMPSTSHCTPPPPYPTDCSIVSFLARLGCSSCLDYFTTQGLTTIYQIEHYSMDDLASLKIPEQFRHAIWKGILDHRQLHDFSSPPHLLRTPSGASTVSVGSSETRGERVIDAVRFTLRQTISFPPRDEWNDFNFDMDSRRNKQQRIKEEGE		2
TAp63α, endogenous in mouse ovaries, phosphorylated after 0.5 Gy γ-irradiation (active tetrameric form) (natural protein, mouse (endogenous in ovaries), UniProt O88898-1 40-680, looked up, phosphorylated (phosphorylation dependent mobility shift on SDS-PAGE); the sites were not determined in this experiment) MSQSTQTSEFLSPEVFQHIWDFLEQPICSVQPIELNFVDEPSENGATNKIEISMDCIRMQDSDLSDPMWPQYTNLGLLNSMDQQIQNGSSSTSPYNTDHAQNSVTAPSPYAQPSSTFDALSPSPAIPSNTDYPGPHSFDVSFQQSSTAKSATWTYSTELKKLYCQIAKTCPIQIKVMTPPPQGAVIRAMPVYKKAEHVTEVVKRCPNHELSREFNEGQIAPPSHLIRVEGNSHAQYVEDPITGRQSVLVPYEPPQVGTEFTTVLYNFMCNSSCVGGMNRRPILIIVTLETRDGQVLGRRCFEARICACPGRDRKADEDSIRKQQVSDSAKNGDGTKRPFRQNTHGIQMTSIKKRRSPDDELLYLPVRGRETYEMLLKIKESLELMQYLPQHTIETYRQQQQQQHQHLLQKQTSMQSQSSYGNSSPPLNKMNSMNKLPSVSQLINPQQRNALTPTTMPEGMGANIPMMGTHMPMAGDMNGLSPTQALPPPLSMPSTSHCTPPPPYPTDCSIVSFLARLGCSSCLDYFTTQGLTTIYQIEHYSMDDLASLKIPEQFRHAIWKGILDHRQLHDFSSPPHLLRTPSGASTVSVGSSETRGERVIDAVRFTLRQTISFPPRDEWNDFNFDMDSRRNKQQRIKEEGE		4
